± gives the standard deviation of the averaged measurements.
Assay: total protein half-life in vivo (active degradation + dilution); higher = more stable protein
[1] = E. coli NCM3722 delta-clpP delta-lon delta-hslV, growth: N-lim chemostat, doubling time 6 h
[2] = E. coli NCM3722 delta-clpP, growth: N-lim chemostat, doubling time 6 h
[3] = E. coli NCM3722 delta-hslV, growth: N-lim chemostat, doubling time 6 h
[4] = E. coli NCM3722 delta-lon, growth: N-lim chemostat, doubling time 6 h
[5] = E. coli NCM3722 delta-smpB, growth: N-lim chemostat, doubling time 6 h
[6] = wild type E. coli NCM3722, growth: C-lim chemostat, doubling time 3 h
[7] = wild type E. coli NCM3722, growth: C-lim chemostat, doubling time 6 h
[8] = wild type E. coli NCM3722, growth: C-lim chemostat, doubling time 12 h
[9] = wild type E. coli NCM3722, growth: N-lim chemostat, doubling time 6 h
[10] = wild type E. coli NCM3722, growth: N-lim chemostat, doubling time 12 h
[11] = wild type E. coli NCM3722, growth: P-lim chemostat, doubling time 6 h
[12] = wild type E. coli NCM3722, growth: P-lim chemostat, doubling time 12 h

| Sequence | total protein half-life in vivo [1] | total protein half-life in vivo [2] | total protein half-life in vivo [3] | total protein half-life in vivo [4] | total protein half-life in vivo [5] | total protein half-life in vivo [6] | total protein half-life in vivo [7] | total protein half-life in vivo [8] | total protein half-life in vivo [9] | total protein half-life in vivo [10] | total protein half-life in vivo [11] | total protein half-life in vivo [12] |
| --- | --- | --- | --- | --- | --- | --- | --- | --- | --- | --- | --- | --- |
| MRVTDFSFELPESLIAHYPMPERSSCRLLSLDGPTGALTHGTFTDLLDKLNPGDLLVFNNTRVIPARLFGRKASGGKIEVLVERMLDDKRILAHIRASKAPKPGAELLLGDDESINATMTARHGALFEVEFNDERSVLDILNSIGHMPLPPYIDRPDEDADRELYQTVYSEKPGAVAAPTAGLHFDEPLLEKLRAKGVEMAFVTLHVGAGTFQPVRVDTIEDHIMHSEYAEVPQDVVDAVLAAKARGNRVIAVGTTSVRSLESAAQAAKNDLIEPFFDDTQIFIYPGFQYKVVDALVTNFHLPESTLIMLVSAFAGYQHTMNAYKAAVEEKYRFFSYGDAMFITYNPQAINERVGE [P0A7F9] | 4.09 ± 0.78 h | 3.64 ± 0.2 h | 4.44 ± 1.4 h | 4.49 ± 0.24 h | 3.41 ± 0.096 h | 2.85 ± 0.04 h | 4.82 ± 0.32 h | 7.45 ± 0.19 h | 3.66 ± 0.14 h | 5.03 ± 0.34 h | 5.46 ± 0.24 h | 9.48 ± 0.17 h |
| MTLTASSSSRAVTNSPVVVALDYHNRDDALAFVDKIDPRDCRLKVGKEMFTLFGPQFVRELQQRGFDIFLDLKFHDIPNTAAHAVAAAADLGVWMVNVHASGGARMMTAAREALVPFGKDAPLLIAVTVLTSMEASDLVDLGMTLSPADYAERLAALTQKCGLDGVVCSAQEAVRFKQVFGQEFKLVTPGIRPQGSEAGDQRRIMTPEQALSAGVDYMVIGRPVTQSVDPAQTLKAINASLQRSA | 5.11 ± 0.11 h | 6.25 ± 2.3 h | 4.479 ± 0.025 h | 5.08 ± 0.2 h | 4.77 ± 0.33 h | 2.89 ± 0.2 h | 6.45 ± 1 h | 9.6 ± 0.32 h | 4.77 ± 0.15 h | 8.44 ± 1.3 h | 5.08 ± 0.49 h | 10.2 ± 0.27 h |
| MNISDVAKITGLTSKAIRFYEEKGLVTPPMRSENGYRTYTQQHLNELTLLRQARQVGFNLEESGELVNLFNDPQRHSADVKRRTLEKVAEIERHIEELQSMRDQLLALANACPGDDSADCPIIENLSGCCHHRAG [P0A9G4] | 4.71 ± 0.63 h | 1.45 h | – | 2.12 ± 0.77 h | – | 1.3 h | 1.95 h | 2.21 h | – | 1.07 h | 0.945 h | 2.28 ± 0.59 h |
| MNNHFKCIGIVGHPRHPTALTTHEMLYRWLCTKGYEVIVEQQIAHELQLKNVKTGTLAEIGQLADLAVVVGGDGNMLGAARTLARYDIKVIGINRGNLGFLTDLDPDNAQQQLADVLEGHYISEKRFLLEAQVCQQDCQKRISTAINEVVLHPGKVAHMIEFEVYIDEIFAFSQRSDGLIISTPTGSTAYSLSAGGPILTPSLDAITLVPMFPHTLSARPLVINSSSTIRLRFSHRRNDLEISCDSQIALPIQEGEDVLIRRCDYHLNLIHPKDYSYFNTLSTKLGWSKKLF [P0A7B3] | – | 4.25 ± 0.11 h | 5.35 ± 1.2 h | 6.6 ± 1.1 h | 4.75 ± 0.69 h | 3.19 ± 0.49 h | 5.33 ± 0.2 h | 12.1 h | 4.4 ± 0.37 h | 7.59 h | 5.9 ± 0.21 h | 11.1 ± 0.2 h |
| MANVEIYTKETCPYCHRAKALLSSKGVSFQELPIDGNAAKREEMIKRSGRTTVPQIFIDAQHIGGCDDLYALDARGGLDPLLK [P0AC62] | 6.58 h | 5.58 ± 0.71 h | 4.93 ± 0.091 h | 5.33 ± 0.32 h | 5.71 ± 1.9 h | 2.89 ± 0.5 h | 5.23 ± 1 h | – | 4.68 h | 9.44 ± 2.5 h | 5.35 ± 0.39 h | 12.6 ± 1.1 h |
| MQHETKMENQSWLKKLARRLGPGHVVNLCFIVVLLFSTLLTWREVVVLEDAYISSQRNHLENVANALDKHLQYNVDKLIFLRNGMREALVAPLDFTSLRDAVTEFEQHRDEHAWKIELNRRRTLPVNGVSDALVSEGNLLSRENESLDNEITAALEVGYLLRLAHNSSSMVEQAMYVSRAGFYVSTQPTLFTRNVPTRYYGYVTQPWFIGHSQRENRHRAVRWFTSQPEHASNTEPQVTVSVPVDSNNYWYGVLGMSIPVRTMQQFLRNAIDKNLDGEYQLYDSKLRFLTSSNPDHPTGNIFDPRELALLAQAMEHDTRGGIRMDSRYVSWERLDHFDGVLVRVHTLSEGVRGDFGSISIALTLLWALFTTMLLISWYVIRRMVSNMYVLQSSLQWQAWHDTLTRLYNRGALFEKARPLAKLCQTHQHPFSVIQVDLDHFKAINDRFGHQAGDRVLSHAAGLISSSLRAQDVAGRVGGEEFCVILPGASLTEAAEVAERIRLKLNEKEMLIAKSTTIRISASLGVSSSEETGDYDFEQLQSLADRRLYLAKQAGRNRVFASDNA | – | 7.2 ± 0.57 h | 6.48 ± 0.5 h | – | 5.94 ± 0.3 h | 3.34 ± 0.062 h | 6.39 ± 0.087 h | 12.3 ± 0.47 h | 6.01 ± 0.53 h | – | 6.56 ± 0.22 h | 12.2 ± 0.31 h |
| MKTLSPAVITLLWRQDAAEFYFSRLSHLPWAMLLHSGYADHPYSRFDIVVAEPICTLTTFGKETVVSESEKRTTTTDDPLQVLQQVLDRADIRPTHNEDLPFQGGALGLFGYDLGRRFESLPEIAEQDIVLPDMAVGIYDWALIVDHQRHTVSLLSHNDVNARRAWLESQQFSPQEDFTLTSDWQSNMTREQYGEKFRQVQEYLHSGDCYQVNLAQRFHATYSGDEWQAFLQLNQANRAPFSAFLRLEQGAILSLSPERFILCDNSEIQTRPIKGTLPRLPDPQEDSKQAVKLANSAKDRAENLMIVDLMRNDIGRVAVAGSVKVPELFVVEPFPAVHHLVSTITAQLPEQLHASDLLRAAFPGGSITGAPKVRAMEIIDELEPQRRNAWCGSIGYLSFCGNMDTSITIRTLTAINGQIFCSAGGGIVADSQEEAEYQETFDKVNRILKQLEK | 5 ± 0.22 h | 4.56 ± 0.35 h | 4.358 ± 0.037 h | 4.5 ± 0.1 h | 4.47 ± 0.21 h | 3.57 ± 0.57 h | 5.38 ± 0.12 h | 11 ± 0.69 h | 4.31 ± 0.16 h | 7.82 ± 0.28 h | 6.33 ± 0.27 h | 12.2 ± 1.5 h |
| MQVFIMRHGDAALDAASDSVRPLTTNGCDESRLMANWLKGQKVEIERVLVSPFLRAEQTLEEVGDCLNLPSSAEVLPELTPCGDVGLVSAYLQALTNEGVASVLVISHLPLVGYLVAELCPGETPPMFTTSAIASVTLDESGNGTFNWQMSPCNLKMAKAI | 4.59 ± 0.56 h | 4.209 ± 0.026 h | 0.943 ± 0.06 h | 0.853 ± 0.11 h | 1.03 ± 0.01 h | 1.06 ± 0.013 h | 1.35 ± 0.12 h | 1.57 ± 0.41 h | 1.13 ± 0.12 h | 1.5 ± 0.33 h | 1.25 ± 0.38 h | 2.5 ± 0.88 h |
| MINVLLVDDHELVRAGIRRILEDIKGIKVVGEASCGEDAVKWCRTNAVDVVLMDMSMPGIGGLEATRKIARSTADVKIIMLTVHTENPLPAKVMQAGAAGYLSKGAAPQEVVSAIRSVYSGQRYIASDIAQQMALSQIEPEKTESPFASLSERELQIMLMITKGQKVNEISEQLNLSPKTVNSYRYRMFSKLNIHGDVELTHLAIRHGLCNAETLSSQ [P0AED5] | 5.39 ± 0.6 h | 2.492 ± 0.024 h | 1.84 ± 0.24 h | 2.66 ± 0.048 h | 1.67 ± 0.048 h | 1.72 ± 0.12 h | 3.04 ± 0.16 h | 4.05 ± 0.16 h | 1.89 ± 0.24 h | 2.67 ± 0.15 h | 1.8 ± 0.087 h | 3.89 ± 0.4 h |
| MNYEIKQEEKRTVAGFHLVGPWEQTVKKGFEQLMMWVDSKNIVPKEWVAVYYDNPDETPAEKLRCDTVVTVPGYFTLPENSEGVILTEITGGQYAVAVARVVGDDFAKPWYQFFNSLLQDSAYEMLPKPCFEVYLNNGAEDGYWDIEMYVAVQPKHH | 4.8 ± 0.93 h | 2.75 h | 3.39 ± 0.23 h | – | 4.26 ± 1.8 h | 2.22 ± 0.21 h | 3.9 ± 0.048 h | 5.57 ± 0.35 h | 3.16 h | 4.89 ± 0.49 h | 2.6 h | 6.49 ± 0.56 h |
| MTKQVKIYHNPRCSKSRETLNLLKENGVEPEVVLYLETPADAATLRDLLKILGMNSARELMRQKEDLYKELNLADSSLSEEALIQAMVDNPKLMERPIVVANGKARIGRPPEQVLEIVG | – | 5.8 h | 3.65 ± 0.025 h | 4.45 ± 0.96 h | – | 3.47 ± 0.39 h | 5.12 ± 0.37 h | 7.332 ± 0.073 h | 2.58 ± 0.029 h | 4.7 ± 1.2 h | 3.87 ± 0.41 h | 8.07 ± 0.2 h |
| MESLASLYKNHIATLQERTRDALARFKLDALLIHSGELFNVFLDDHPYPFKVNPQFKAWVPVTQVPNCWLLVDGVNKPKLWFYLPVDYWHNVEPLPTSFWTEDVEVIALPKADGIGSLLPAARGNIGYIGPVPERALQLGIEASNINPKGVIDYLHYYRSFKTEYELACMREAQKMAVNGHRAAEEAFRSGMSEFDINIAYLTATGHRDTDVPYSNIVALNEHAAVLHYTKLDHQAPEEMRSFLLDAGAEYNGYAADLTRTWSAKSDNDYAQLVKDVNDEQLALIATMKAGVSYVDYHIQFHQRIAKLLRKHQIITDMSEEAMVENDLTGPFMPHGIGHPLGLQVHDVAGFMQDDSGTHLAAPAKYPYLRCTRILQPGMVLTIEPGIYFIESLLAPWREGQFSKHFNWQKIEALKPFGGIRIEDNVVIHENNVENMTRDLKLA | 5.4 ± 0.69 h | 4.93 ± 0.32 h | 5.12 ± 0.4 h | 5.92 ± 0.92 h | 4.33 ± 0.059 h | 3.21 ± 0.37 h | 5.72 ± 0.084 h | 10.2 ± 1.3 h | 4.77 ± 0.23 h | 8.64 ± 0.18 h | 6.13 ± 0.18 h | 11.9 ± 0.27 h |

Reference: the supplement of paper PMC11246515
